Reference: PMC10730906

Target: purified TslA lipase domain (N-terminal domain of SAOUHSC_00406) (S. aureus) (UniProt Q2G0W8)
Test: ITC; 30 uM TslA in the cell, 300 uM TilA in the syringe; 20 mM HEPES pH 7.5, 150 mM NaCl, 25 °C; Microcal PEAQ-ITC

B1: purified TilA lacking its signal sequence, His tag removed (SAOUHSC_00405) (natural protein)
chain: CGNMKDEQKKEEQTNKTDSKEEQIKKSFAKTLDMYPIKNLEDLYDKEGYRDGEFKKGDKGTWTILTGFSKSNKPGVLDDEGMVLYLNRNTKKATGYYFVNKVYDDISKNHNEKKYRVELKNNKIVLLDNVEDKKLKQKIENFKFFSQYADFKDLKNYQDGNITTNENVPSYEAQYKMNNSDKNVKKLREIYPITTNNSPNLKLYIDGDIKGSSVGYKKIEYKFSKDKGQETTLRDYLNFGPSEGENVE
Kd: 14.2 nM | dH: -20.5 kcal/mol | stoichiometry N: 0.88
